In US20120276114A1, “IFN-GAMMA INHIBITORS IN THE TREATMENT OF MOTONEURON DISEASES” (UNIVERSITE D'AIX-MARSEILLE, priority 2009, published 2012):

B1: DcR3-COMP: Extracellular part of DcR3 fused to COMP (SEQ ID NO: 17), decoy for both FasL and LIGHT, AAV-expressed (protein)
chain: MRALEGPGLSLLCLVLALPALLPVPAVRGVAETPTYPWRDAETGERLVCAQCPPGTFVQRPCRRDSPTTCGPCPPRHYTQFWNYLERCRYCNVLCGEREEEARACHATHNRACRCRTGFFAHAGFCLEHASCPPGAGVIAPGTPSQNTQCQPCPPGTFSASSSSSEQCQPHRNCTALGLALNVPGSSSHDTLCTSCTGFPLSTRVPGAEECERAVIDFVAFQDISIKRLQRLLQALEAPEGWGPTPRAGRAALQLKLRRRLTELLGAQDGALLVRLLQALRVARMPGLERSVRERFLPVHPQPQPKPQPKPEPEGDLAPQMLRELQETNAALQDVRELLRHRVKEITFLKNTVMECDACGYPYDVPDYA
modifications: AAV-expressed; Sequence for chimeric protein DcR3-COMP
B2: IFNγ: Soluble mouse recombinant IFNγ (Calbiochem; PBL Biomedical laboratories) (protein, UniProt P01580 23-155, looked up)
Interferon gamma: HGTVIESLESLNNYFNSSGIDVEEKSLFLDIWRNWQKDGDMKILQSQIISFYLRLFEVLKDNQAISNNISVIESHLITTFFSNSKAKKDAFMSIAKFEVNNPQVQRQAFNELIRVVHQLLPESSLRKRKRSRC
B3: IFNγR1-COMP: Extracellular part of IFNγR1 fused to COMP, HA-tagged (SEQ ID NO: 15), expressed from AAV vector (protein)
chain: MGPQAAAGRMILLVVLMLSAKVGSGALTSTEDPEPPSVPVPTNVLIKSYNLNPVVCWEYQNMSQTPIFTVQVKVYSGSWTDSCTNISDHCCNIYGQIMYPDVSAWARVKAKVGQKESDYARSKEFLMCLKGKVGPPGLEIRRKKEEQLSVLVFHPEVVVNGESQGTMFGDGSTCYTFDYTVYVEHNRSGEILHTKHTVEKEECNETLCELNISVSTLDSRYCISVDGISSFWQVRTEKSKDVCIPPFHDDRKERPQPQPQPKPQPKPEPEGDLAPQMLRELQETNAALQDVRELLRHRVKEITFLKNTVMECDACGYPYDVPDYA
modifications: HA tag; AAV-expressed; amino acid sequence of mouse IFN gamma R1-cartilage oligomeric matrix protein chimera
B4: COMP: negative control generated by deleting approximately 80% of the extra-cellular part of Fas (secreted COMP) (protein)
chain: PQPQPKPQPKPEPEGDLAPQMLRELQETNAALQDVRELLRHRVKEITFLKNTVMECDACGYPYDVPDYA
modifications: amino acid sequence of a coiled-coil domain of cartilage oligomeric matrix protein

How the values were obtained:
[1] = tested on: corresponding recombinant ligand (recombinant soluble LIGHT and IFNγ); experiment: immunoprecipitation of ligand-receptor complex from conditioned media of transduced glioma cell lines; format: binding; conditions: anti-HA immunoprecipitation, immunoblot
Description: The constructs were checked by sequencing. The efficacy of IFNγR1-COMP, DcR3-COMP, Fas-COMP, and COMP to be efficiently secreted by astrocytes and to specifically interact with their respective ligands were evaluated in vitro by immunoprecipitation assays. Glioma cell lines were transduced with vectors encoding IFNγR1-COMP, DcR3-COMP, Fas-COMP, or COMP and conditioned media collected. Recombinant soluble LIGHT and IFNγ were added to different conditioned media. Immunoprecipitation of ligand-receptor complex were performed using anti-hemagglutinin (HA) tag antibody, since these constructs include an HA tag at their C-terminus, and immunocomplexes analysed by SDS-PAGE followed by immunoblotting with antibodies to LIGHT, IFNγR1 and IFNγ.

[2] = tested on: sLIGHT-induced death of motoneurons; experiment: AAV-delivered COMP chimeric receptors: rescue of motoneurons from sLIGHT-induced death; format: cell-based, mice; conditions: AAV vectors; sLight 50 ng/ml; survival 48 h later
Description: (§1) FIG. 7 evidences the efficiency of recombinant proteins IFNγR1-COMP, DcR3-COMP, and Fas-COMP (in the form of AAV viral vectors at 1.5×10^5 TU/ml), to interfere with death induced by their respective ligand(s) or cytokine (sFasL (50 ng/ml), sLight (50 ng/ml), IFNγ (250 ng/ml)), in contrast to the negative control (COMP). Cell survival was determined 48 h later as described in Example 4. All values are expressed as the means±S.D of three independent experiments.
(§2) The functionality of the dominant negatives in inhibiting Fas and LIGHT/IFNγ-induced death was evaluated in an isolated motoneurons culture system as described in Example 2. Embryonic motoneurons isolated from spinal cords of E12.5 CD1 mice were cultured for 6 h and then infected with 50 TU/ml of indicated with AAV-IFNγR1-COMP, AAV-DcR3-COMP, AAV-Fas-COMP, or AAV-COMP viral vectors. After 6 h of incubation the culture medium was replaced and motoneurons were treated 48 h later (when indicated) with effective doses of either sFasL (50 ng/ml), sLight (50 ng/ml) or IFNγ (250 ng/ml). Forty-eight hours later, survival was determined by direct counting of motoneurons (FIG. 7). […] On the other hand, IFNγ-triggered death was blocked by IFNγR1-COMP.

[3] = tested on: sFasL-induced death of motoneurons; experiment: AAV-delivered COMP chimeric receptors: rescue of motoneurons from sFasL-induced death; format: cell-based, mice; conditions: AAV vectors; sFasL 50 ng/ml; survival 48 h later
Description: as §1, §2

LIGHT = experiment: expression levels of LIGHT in motoneurons exposed to IFNγ; format: cell-based, mouse
Description: Neurons were plated at the density of 20,000 cells/cm^2 in 6-cm diameter dishes containing corresponding complemented Neurobasal medium (see above). Sodium dodecyl sulfate polyacrylamide gel electrophoresis (SDS-PAGE) and Western blotting were carried out on neurons, astrocytes (duplicates) and dissected lumbar spinal cords using protocol previously described in Raoul et al., 2005, above. Primary antibodies were anti-LT-βR (sc-8377, Santa Cruz Biotechnology, 1:500), anti-LIGHT (sc-28880, Santa Cruz Biotechnology, 1:500), anti-IFNγ (sc-52557, Santa Cruz Biotechnology, 1:500), anti-IFNγR1 (559911, BD Biosciences, 1:500), anti-IFNγR2 (ab31606, Abcam, 1:2000), anti-α-tubulin (B-5-1-2, Sigma-Aldrich, 1:20,000), anti-actin (AC-40, Sigma-Aldrich, 1:20,000). Proteins were detected using horseradish peroxidase (HRP)-conjugated secondary antibodies and visualized with the chemiluminescent HRP substrate (Millipore). Where indicated, immunoblot images were quantified and normalized relative to the α-tubulin or actin levels using the NIH ImageJ software.

[4] = tested on: IFNγ-triggered death of motoneurons; experiment: AAV-delivered COMP chimeric receptors: rescue of motoneurons from IFNγ-triggered death; format: cell-based, mice; conditions: AAV vectors; IFNγ 250 ng/ml; survival 48 h later
Description: as §1, §2

Molecule | interaction with corresponding recombinant ligand (immunoprecipitation) [1] | rescue of motoneurons from sLIGHT-induced death [2] | rescue of motoneurons from sFasL-induced death [3] | expression levels of LIGHT (LIGHT) | cell-type restriction of the synergistic lethal effect of IFNγ on LIGHT-induced death (motoneurons; compared with cortical, hippocampal, sensory and striatal neurons) | death of motoneurons (motoneurons; cultured motoneurons, survival 48 h after treatment) | effect on sFasL-induced death (motoneurons; motoneurons) | effect on LIGHT killing effect (motoneurons; suboptimal dose of sLIGHT and increasing doses of IFNγ) | responsiveness of freshly isolated motoneurons to sLIGHT or agonistic anti-LT-βR antibodies (motoneurons; treated at 0, 24 or 72 h, IFNγ combined with sLIGHT or anti-LT-βR antibodies) | rescue of motoneurons from IFNγ-triggered death [4]
B1 | effectively interact | rescued | rescued |  |  |  |  |  |  | 
B2 |  |  |  | significantly enhancing | restricted to motoneurons | about 50% | no effect | substantially enhances | responsive to sLIGHT or agonistic anti-LT-βR antibodies | 
B3 | effectively interact |  |  |  |  |  |  |  |  | blocked
B4 |  | did not interfere | did not interfere |  |  |  |  |  |  | did not interfere
